The source of these data is PMC2948610.

Holding throughout (test): thioflavin T fluorescence
Assay [1] has as its target [F11A,I12A]MSP2_(1–25) (Plasmodium falciparum).
The target in assay [2] is MSP2_(1–25), recombinant 25-residue peptide corresponding to the entire conserved N-terminal domain of mature MSP2 (Plasmodium falciparum).
The target in assay [3] is [Y7A,Y16A]MSP2_(1–25) (Plasmodium falciparum).

In assay [1], [F11A,I12A]MSP2_(1–25) (peptide) showed a lag time of fibril formation of 3.5 h and a time to maximum ThT fluorescence (fibril formation) of 9 h.
Take “MSP2_(1–25), recombinant 25-residue peptide corresponding to the entire conserved N-terminal domain of mature MSP2”: in assay [2], the lag time of fibril formation was determined as 1 h and the time to maximum ThT fluorescence (fibril formation) was 2 h.
Consider [Y7A,Y16A]MSP2_(1–25) (peptide), for which, in assay [3], the lag time of fibril formation stood at 1 h and the time to maximum ThT fluorescence (fibril formation) was 2 h.
